Experimental data from article PMC11480844.

B1: H2-Kb / B13 (parent)
chain 1: AQKVTQTQTSISVMEKTTVTMDCVYETQDSSYFLFWYKQTASGEIVFLIRQDSYKKENATVGHYSLNFQKPKSSIGLIITATQIEDSAVYFCAMREGTGGYKVVFGSGTRLLVSP
chain 2: EAAVTQSPRNKVTVTGGNVTLSCRQTNSHNYMYWYRQDTGHGLRLIHYSYGAGNLQIGDVPDGYKATRTTQEDFFLLLELASPSQTSLYFCASSDGTGHEQYFGPGTRLTVL
chain 3: not shown
chain 4: IQKTPQIQVYSRHPPENGKPNILNCYVTQFHPPHIEIQMLKNGKKIPKVEMSDMSFSKDWSFYILAHTEFTPTETDTYACRVKHDSMAEPKTVYWDRDM
chain 5: SIINFEKL
B2: H2-Kb / E8 (parent)
chain 1: GDSVTQTEGLVTVTEGLPVKLNCTYQTTYLTIAFFWYVQYLNEAPQVLLKSSTDNKRTEHQGFHATLHKSSSSFHLQKSSAQLSDSALYYCALNTNTGKLTFGDGTVLTVKP
chain 2: EAAVTQSPRNKVAVTGGKVTLSCNQTNNHNNMYWYRQDTGHGLRLIHYSYGAGSTEKGDIPDGYKASRPSQENFSLILELATPSQTSVYFCASGDWGAGTGQLYFGEGSKLTVL
chain 3: not shown
chain 4: B1 chain 4
chain 5: SIINFEKL
B3: H2-Kb / E9 (parent)
chain 1: QQKVQQSPESLTVSEGAMASLNCTFSDRSSDNFRWYRQHSGKGLEVLVSIFSDGEKEEGSFTAHLNRASLHVFLHIREPQPSDSALYLCAVSRSSGSWQLIFGSGTQLTVMP
chain 2: NSGVVQSPRYIIKGKGERSILKCIPISGHLSVAWYQQTQGQELKFFIQHYDKMERDKGNLPSRFSVQQFDDYHSEMNMSALELEDSAVYFCASSRDSNNQAPLFGEGTRLSVL
chain 3: not shown
chain 4: B1 chain 4
chain 5: SIINFEKL

Variants of: B1
Experiment: % of reporter cells activated (NFAT-GFP), raw
Conditions: with B13; scale: % of reporter cells activated
Also: test concentration or dose not given here.

Ratio to parent: each site, then its substitutions
chain 5 F5: V 0.331 | W 0.0204 | H 0.366 | K 0.15
chain 5 I3: G 1.07 | D 0.0646 | V 2.29 | R 1.96 | M 5.23 | N 1.58 | F 0.122 | L 2.17 | K 0.422 | P 5.54 | C 5.34 | A 4.66 | T 1.56 | H 1.64 | S 1.98 | Q 4.85 | Y 0.117 | W 0.293 | E 4.51
chain 5 N4: R 0.104 | Y 0.0196 | H 0.038 | T 0.0378 | C 0.0444 | D 0.0238 | K 0.0279 | E 0.156 | M 0.0596 | G 0.101 | W 0.025 | S 0.0507 | P 0.0596 | F 0.393 | Q 0.0444 | A 0.052 | L 0.0811 | V 0.0342 | I 0.179
chain 5 K7: D 0.108 | Q 0.887 | R 0.987 | W 1.27 | Y 0.195 | P 0.0545 | M 4.28 | F 1.21 | G 0.471 | T 1.03 | V 2.07 | A 0.722 | H 0.431 | I 1.32 | E 0.113 | N 1.14 | C 1.38 | S 1.02 | L 3.14
chain 5 E6: L 0.0292 | F 0.0355 | S 0.0411 | V 0.038 | Y 0.0507 | D 0.0608 | T 0.0399 | H 0.0361 | W 0.0431 | M 0.0342 | R 0.024 | I 0.0222 | K 0.611 | A 0.0525 | N 0.0224 | Q 0.0298 | C 0.0215 | P 0.101 | G 0.0583
chain 5 S1: D 0.113 | R 6.17 | M 1.15 | T 0.544 | K 0.64 | Q 0.392 | H 0.0963 | Y 0.11 | L 0.112 | G 0.236 | F 0.0232 | E 0.113 | C 0.0621 | A 0.835 | V 0.857 | P 0.139 | I 0.381 | N 0.0976 | W 1.35
chain 5 L8: N 3 | I 0.992 | T 0.331 | D 2.32 | S 2.06 | R 1.98 | V 0.393 | Y 0.812 | W 0.423 | A 0.227 | G 1.21 | E 2.13 | K 0.45 | C 3.32 | P 2.29 | F 0.189 | Q 0.247 | H 0.954 | M 0.471
chain 5 I2: E 0.75 | D 0.523 | L 1.48 | A 1.04 | H 1 | P 0.285 | Q 0.243 | W 2.33 | F 1.01 | K 1.84 | R 1.49 | Y 2.07 | S 0.848 | T 1.09 | M 0.411 | N 0.347 | G 0.284 | V 1.98 | C 1.49

Variants of: B2
Experiment: % of reporter cells activated (NFAT-GFP), raw
Conditions: with E8; scale: % of reporter cells activated

Ratio to parent of substitutions, site by site:
chain 5 F5: G 1.93 | K 0.557 | A 1.63 | D 0.0471 | L 0.68 | C 1.41 | H 1.61 | E 0.539 | I 0.735
chain 5 E6: C 0.0282 | Q 0.115 | L 0.0214 | R 0.0462 | G 0.193 | D 0.546 | M 0.0317 | H 0.0243 | F 0.018 | W 0.0496 | S 0.0471 | A 0.159 | T 0.0257 | Y 0.00591 | P 0.169 | K 0.03 | I 0.0166 | N 0.03 | V 0

Variants of: B3
Experiment: % of reporter cells activated (NFAT-GFP), raw
Conditions: with E9; scale: % of reporter cells activated

Ratio to parent of substitutions, site by site:
chain 5 N4: I 1.92
chain 5 I2: H 1.71
